Biological target: T1, EphA2 receptor (Homo sapiens, UniProt P29317)
T1 construct: PC-3 prostate cancer cells that overexpress the EphA2 receptor; endogenous in cells; host or cells: PC-3 cells (ATCC CRL-1435)
Assay: EphA2 phosphorylation assay (sandwich ELISA, DuoSet IC Human Phospho-EphA2 kit) in PC-3 cells
Assay type: cell-based

[1] = serum-starved PC-3 cells, 30 min at 37 °C, duplicates, sandwich ELISA, approximate EC50 from least-square fit (Equation 1), mean ± standard deviation, concentration of whole entity (DNA construct or peptide)

T1 sequence (P29317 24-976): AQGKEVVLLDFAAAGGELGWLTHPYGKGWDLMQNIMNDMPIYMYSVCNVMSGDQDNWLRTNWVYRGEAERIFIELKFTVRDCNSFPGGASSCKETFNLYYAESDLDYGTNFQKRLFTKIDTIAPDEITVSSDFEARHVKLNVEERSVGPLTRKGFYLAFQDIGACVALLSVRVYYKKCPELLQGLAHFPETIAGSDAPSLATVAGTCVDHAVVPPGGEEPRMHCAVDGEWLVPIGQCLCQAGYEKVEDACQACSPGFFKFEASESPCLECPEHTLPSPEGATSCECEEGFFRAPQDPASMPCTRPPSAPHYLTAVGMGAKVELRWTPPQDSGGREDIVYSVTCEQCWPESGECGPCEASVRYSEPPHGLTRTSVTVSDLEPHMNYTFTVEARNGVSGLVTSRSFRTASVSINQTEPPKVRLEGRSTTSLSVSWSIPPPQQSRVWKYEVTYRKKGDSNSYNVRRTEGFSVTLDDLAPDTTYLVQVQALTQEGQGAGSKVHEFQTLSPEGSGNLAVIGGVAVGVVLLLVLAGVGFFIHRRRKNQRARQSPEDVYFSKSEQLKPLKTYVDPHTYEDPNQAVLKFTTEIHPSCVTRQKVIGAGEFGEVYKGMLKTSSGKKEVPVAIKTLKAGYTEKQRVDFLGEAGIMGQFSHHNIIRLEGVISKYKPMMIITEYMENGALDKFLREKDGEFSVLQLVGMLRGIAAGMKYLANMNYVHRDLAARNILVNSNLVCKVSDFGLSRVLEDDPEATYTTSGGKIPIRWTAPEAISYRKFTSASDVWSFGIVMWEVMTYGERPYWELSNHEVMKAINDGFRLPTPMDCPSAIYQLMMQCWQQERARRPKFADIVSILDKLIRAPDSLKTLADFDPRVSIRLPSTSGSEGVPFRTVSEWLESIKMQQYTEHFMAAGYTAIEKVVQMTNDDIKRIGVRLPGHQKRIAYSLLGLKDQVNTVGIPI
Experimental: Serum-starved PC-3 cells were treated with different SWL-DNA trimer constructs (9 µM), monomeric SWL peptide (150 µM) and the natural ligand ephrin-A1 (1.5 µg/mL) in duplicates for 30 min at 37 °C. Cells were washed with 1× PBS twice and further treated according to the manufacturer’s instructions.
Serum-starved PC-3 cells were treated with different concentrations of constructs in duplicates for 30 min at 37 °C. Cells were washed with 1× PBS twice and further treated according to the manufacturer’s instructions. […] Standard deviation is presented as error bars. The x-axis indicates concentrations of the constructs in terms of DNA for 0xSWL-DNA trimer—3xSWL-DNA trimer and the concentration of the peptide for SWL.
Levels of EphA2 phosphorylation were determined using the DuoSet IC Human Phospho-EphA2 kit (R&D systems, Minneapolis, MN, USA) which is based on a sandwich ELISA. Briefly, 2 × 10^5 PC-3 cells were seeded three days before the assay for the comparison of ligands. For the concentration series used to determine EC50 values, 1 × 10^6 PC-3 cells were seeded into 12-well culture plates one day before the assay. On the day of the experiment, cells were serum-starved for 4 h and treated with either 1xSWL-DNA trimer, 2xSWL-DNA trimer, 3xSWL-DNA trimer, natural ligand ephrin-A1, SWL peptide, DNA trimer only or 1× PBS/10 mM MgCl2 as negative control for 30 min at 37 °C. Cells were lysed using 250 µL/well lysis buffer (according to kit) and assayed as indicated by manufacturer’s instructions. Manifold washing was conducted after every step and the whole procedure was executed at room temperature. In brief, 96-well ELISA plates carrying specific human EphA2 capture antibodies were incubated with cell lysates of afore treated PC-3 cells. This was followed by the addition of anti-phospho-tyrosine-HRP antibodies which ultimately fulfil a colorimetric reaction by conversion of 3,3′,5,5′-Tetramethylbenzidine substrate solution for 25 min (ligands in Figure 4a) or 8 min (ephrin-A1 in Figure A7). This reaction was stopped by adding 2 N H2SO4 and absorbance was measured at 450 nm and at 520 nm (infinite M1000, Tecan, Switzerland); the latter was subtracted as reference value. To normalize values from concentration series, controls (only 1× PBS/10 mM MgCl2) were subtracted, too. Data was analyzed by fitting to the equation: (1) A=Amin+(Amax−Amin)/1+(x/EC50)^−b where A is the observed absorbance, Amin and Amax are minimal and maximal absorbance respectively, and b is the Hill coefficient.

| Molecule | EC50 [1] [nM] | EC50 for EphA2 receptor phosphorylation (ephrin-A1 dose-response (Figure A7), PC-3 cells, 30 min at 37 °C, substrate reaction 8 min) [µg/mL] | EC50 (ephrin-A1 dose-response (Figure A7), PC-3 cells, conversion of the µg/mL value) [nM] |
| --- | --- | --- | --- |
| CC(C)C[C@H](NC(=O)[C@H](Cc1c[nH]c2ccccc12)NC(=O)[C@@H](N)CO)C(=O)N[C@@H](C)C(=O)N[C@@H](Cc1ccc(O)cc1)C(=O)N1CCC[C@H]1C(=O)NCC(=O)N[C@@H](C)C(=O)N[C@H](C(=O)N[C@@H](CO)C(=O)N[C@@H](Cc1ccc(O)cc1)C(=O)N[C@@H](CCCNC(=N)N)C(=O)NCC(=O)NCC(=O)N[C@@H](CCCCN=[N+]=[N-])C(=O)O)C(C)C [SWL, reference compound] | 154000 ± 115000 |  |  |
| ephrin-A1: natural EphA2 protein ligand, molecular weight approx. 21 kDa (protein, Limits are the mature chain without signal peptide and GPI propeptide, by convention; the approx. 21 kDa MW fits a non-Fc soluble form; Possible N-glycan at Asn) DRHTVFWNSSNPKFRNEDYTIHVQLNDYVDIICPHYEDHSVADAAMEQYILYLVEHEEYQLCQPQSKDQVRWQCNRPSAKHGPEKLSEKFQRFTPFTLGKEFKEGHSYYYISKPIHQHEDRCLRLKVTVSGKITHSPQAHDNPQEKRLAADDPEVRVLHSIGHS | 2.7 ± 0.5 | 0.0552 ± 0.0103 | 2.65 |

Source: publication PMC6274923, “Pinpointed Stimulation of EphA2 Receptors via DNA-Templated Oligovalence” (International Journal of Molecular Sciences, 2018)
